Our source for the amyloid nucleation score values is the supplement of paper PMC12042874.

The nature of the data set: amyloid nucleation score (Sup35N fusion, yeast selection) (log enrichment); library NNK2; higher = more nucleation; inactive = no reads after selection. The essentials: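 Yeast lacking psi expressed peptides of 20 random codons fused to Sup35N, received 100 μM copper sulfate for 24 hours, and were then grown for 7 days at 30°C on medium lacking adenine and uracil. Illumina sequencing of input and output plasmid inserts provided the reads. Nucleation scores are DiMSum log enrichments of output over input, centred on the mode of non-aggregating sequences. Any sequence with under 100 input reads was excluded.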

± gives the uncertainty stated by the source.

In turn, VKNWVISCGGILNDARRLFD registered an amyloid nucleation score of -0.78 ± 1.1.

On to TASFK, for which the amyloid nucleation score is -0.014 ± 0.76.

WWHLKTQKSP had an amyloid nucleation score of -0.09 ± 0.44.

For the substance FGRWHYLQRGFKRSGVHFNR, the amyloid nucleation score entry is “inactive”.

As to YLLFHYGFLN, the amyloid nucleation score was -1.1 ± 0.63.

Substance VEGLNCVLSDNKVANGS yielded an amyloid nucleation score of -0.791 ± 0.44.

As to QDPFQIRLLVVLNFDNLYLW, the amyloid nucleation score came to 2.08 ± 0.1.

For GSSVDNACQSDLPVQVSMKF, the amyloid nucleation score is -0.478 ± 0.64.

VPRKILFCLLACCRMRQACS had an amyloid nucleation score of 0.67 ± 0.33.

As to YLWDTEDYMRMWAKRWEKAR, the amyloid nucleation score amounted to 0.259 ± 0.56.

The substance DFDGRRHSDNDLSWNSNF came in with an amyloid nucleation score of -1.42 ± 1.1.

In turn, AKDRTCRWLISKQSIPDSRA displayed an amyloid nucleation score of 0.119 ± 0.27.

Consider EGFLRIVKVVTTIWWTGLFC, for which the amyloid nucleation score is -1.23 ± 1.

VEADVYDRDVTSWRMLYLYK registered an amyloid nucleation score of 0.174 ± 0.4.

SKMVDLVVNPQVYCLRRVFW had an amyloid nucleation score of 2.9 ± 0.078.

In turn, VNVEYSSMHKLCAW showed an amyloid nucleation score of 0.201 ± 0.46.

For CKGLNMFLLFSHSHSCMLRG, the amyloid nucleation score is -1.35 ± 0.39.

Regarding TPCIMWKLGLFFVDCCFGFP, the amyloid nucleation score came to 4.1 ± 0.12.

On to VHCSVGNINKDVSCTVVRP, for which the amyloid nucleation score is 0.892 ± 0.47.

For the substance WCSSKSLADSGRVMGANVYI, the amyloid nucleation score was -1.02 ± 0.78.

TGRHKVTDLRIWILWSYTGA yielded an amyloid nucleation score of -0.398 ± 0.63.

On to LLYNGVILLECGWYMVSVAS, for which the amyloid nucleation score is -0.071 ± 0.29.

As to CLLHGCHYLSSYLKFSQSWL, the amyloid nucleation score result is “inactive”.

The substance KCGEKRMKCFSDCRRWWLCQ came in with an amyloid nucleation score of 4.88 ± 0.068.

Substance DWTTAFSTF gave an amyloid nucleation score of -0.012 ± 0.41.

FEGFNAMVSGLRYSSMGCFH registered an amyloid nucleation score of 0.334 ± 0.25.

GAVNFYHT yielded an amyloid nucleation score of 4.06 ± 0.044.

For DNSIRTLEILKSGNIVRGPR, the amyloid nucleation score entry was “inactive”.

In turn, VMCFVDRDRFCNLFKLCLEF yielded an amyloid nucleation score of -1.45 ± 0.49.

With YYFNVLFSCYEEWFMFSSTS, the amyloid nucleation score result was “inactive”.

Turning to LGYGWFNVLTYTTI, the amyloid nucleation score is -0.209 ± 0.65.

Turning to WLNLARDWKWKSDINFWKVH, the amyloid nucleation score result was “inactive”.

On to VHIMEDVMRRFCDRCTCRTW, for which the amyloid nucleation score was found to be 0.562 ± 0.44.

For the substance VCCAFLCASRAVVYTGKDMH, the amyloid nucleation score was determined as 10.18 ± 0.027.

On to KSFGCIRKCEDCYIW, for which the amyloid nucleation score came out at 0.74 ± 0.51.

As to TVFKYLTFLGSIVFSTVPLV, the amyloid nucleation score was 0.088 ± 0.56.

In the case of AHLARGGWFVKRCYSGGDVF, the amyloid nucleation score was -0.087 ± 0.76.

In the case of RSKSCSVVVRL, the amyloid nucleation score amounted to 0.813 ± 0.43.

As for SCHVC, the amyloid nucleation score turned out to be 5.854 ± 0.058.

FFTGFDLVPVSYI: the amyloid nucleation score result is “inactive”.

Take WHTYSRCSFRKRAGSLVAFP: the amyloid nucleation score worked out at 0.365 ± 0.28.

For the substance GLGGTTFI, the amyloid nucleation score was -1.04 ± 0.43.

GNVLFAFTFSVCLKFLAFVF registered an amyloid nucleation score of -0.407 ± 0.64.

As for NCSHGLHLNVFNLVPYKSLI, the amyloid nucleation score is 4.9 ± 0.096.

Take HFYCMV: the amyloid nucleation score amounted to 4.51 ± 0.11.

Substance RFVKSRRATILSNDG yielded an amyloid nucleation score of -0.198 ± 0.39.

As to FLYMQTMLCNSKVFQVSALC, the amyloid nucleation score entry is “inactive”.

In the case of NIDSELSCDYD, the amyloid nucleation score was -0.784 ± 0.76.

Take ALAACSNSRG: the amyloid nucleation score was found to be 0.416 ± 0.54.

As for CTVLSDRTCYSSTERLVRIH, the amyloid nucleation score result was “inactive”.

In turn, SIFFC yielded an amyloid nucleation score of 2.09 ± 0.09.

VISSRGALCRRAKQ gave an amyloid nucleation score of 0.409 ± 0.53.

As for IAVYTYLAGAWKHLETLAFP, the amyloid nucleation score was determined as 3.8 ± 0.1.

Regarding AQNLGFHEMGLAKCCRVGLY, the amyloid nucleation score is 0.233 ± 0.44.

The substance SVMIWIIASNIDILSVVFRL displayed an amyloid nucleation score of -0.573 ± 1.1.

As to NVVGRYKSSDSLTYARWGWR, the amyloid nucleation score was -0.064 ± 0.34.

RLRDDENIGIFMTF displayed an amyloid nucleation score of -1.15 ± 1.

Take IFIPSFWGIFTIPM: the amyloid nucleation score is -1.01 ± 1.

Substance RKGCWSL came in with an amyloid nucleation score of 1.65 ± 0.34.

In turn, EQYPNKPVRCEVRATATWGP came in with an amyloid nucleation score of 0.245 ± 0.27.

RVKYLDDCQYMLFRWCRMFT yielded an amyloid nucleation score of 0.209 ± 0.29.

For WTRAVKPPV, the amyloid nucleation score is -0.113 ± 0.34.

In the case of IRPLFTVLGRKTRQIFTM, the amyloid nucleation score was -0.283 ± 1.

For the substance SYHFQDLW, the amyloid nucleation score is -0.461 ± 0.25.

As for RLPAFSRFG, the amyloid nucleation score is -0.452 ± 0.37.

Consider FCAYVAWLSSWNIQPAKGRG, for which the amyloid nucleation score was 1.1 ± 0.35.

The substance VKTRVQPRTGDLSATLLGLE registered an amyloid nucleation score of 0.828 ± 0.48.

For the substance VFWGM, the amyloid nucleation score is -1.35 ± 0.49.

For the substance SGNIIFNRRMRRAALEWDIT, the amyloid nucleation score was -0.125 ± 0.63.

HLRWARRIGVCTVFYLSRIC came in with an amyloid nucleation score of 0.483 ± 0.57.

NMRHI showed an amyloid nucleation score of 0.75 ± 0.41.

In turn, FMFPGRRPFPIAMWELRFFS displayed an amyloid nucleation score of -0.427 ± 1.1.

With SEVGEGSPIDMTLARSGSVF, the amyloid nucleation score came out at 0.913 ± 0.81.

EKAGGPWLDHNRRQCQCEVA: the amyloid nucleation score stood at 0.634 ± 0.45.

The substance FVEITRG had an amyloid nucleation score of -0.196 ± 1.1.

In the case of TIRRVRSALQQHM, the amyloid nucleation score was found to be 0.041 ± 0.49.

In turn, DATNQRYVPRLFHKMSITGS registered an amyloid nucleation score of 0.848 ± 0.57.

Regarding NWRTCLALNCLTDPAKYLIN, the amyloid nucleation score is -0.725 ± 0.76.

LKNVLTCESVINQLR: the amyloid nucleation score is -0.464 ± 0.39.

In the case of IGARFKFNQWTSYYIQRF, the amyloid nucleation score entry was “inactive”.

In the case of SGVAPVIMYCAIVCGGLHM, the amyloid nucleation score stood at 8.517 ± 0.067.

Consider TMRFLVGFCLTNWDNLNASC, for which the amyloid nucleation score amounted to 3.67 ± 0.05.

On to WSNPTKLFHELAVQLNYTMP, for which the amyloid nucleation score came out at 0.903 ± 0.74.

Consider APTQDTLEFRHISFEVVWRT, for which the amyloid nucleation score was found to be 2.84 ± 0.18.

For the substance WSMVTVLRGDRG, the amyloid nucleation score came to 0.525 ± 0.54.

Substance RFNTCLDS showed an amyloid nucleation score of -0.005 ± 0.29.

As for YFCPVPYLAPVLCRLFKVKL, the amyloid nucleation score was -0.87 ± 1.

Substance LVDLWSRRGCKKLVRYVESL displayed an amyloid nucleation score of 0.818 ± 0.53.

YRVVKPCWLHFGDLIVWTWC came in with an amyloid nucleation score of 0.351 ± 0.35.

FRMLNRFLWFKVKMGYMHYG had an amyloid nucleation score of -0.618 ± 0.42.

SNEGWIKCWILYFVFGAWMI yielded an amyloid nucleation score of -0.896 ± 0.79.

FSRCTSVEV yielded an amyloid nucleation score of -0.699 ± 1.

The substance RYGERIFV gave an amyloid nucleation score of 0.627 ± 0.43.

In the case of MGLSTRLH, the amyloid nucleation score entry is “inactive”.

The substance TFGTSFKYFMSWLIDRCCYL yielded an amyloid nucleation score of -0.836 ± 1.1.

Take CYRYVGCSTYSTDQVVCAYK: the amyloid nucleation score came out at 6.006 ± 0.051.

Turning to SNDDIEIAKRSHMY, the amyloid nucleation score was determined as 0.196 ± 0.54.

On to ASYQRSCILRRFTFVSCILI, for which the amyloid nucleation score stood at 1.56 ± 0.17.

Consider TVFSK, for which the amyloid nucleation score is -0.998 ± 0.76.

For the substance RDSFRDTAYHELVYFTKNFR, the amyloid nucleation score entry was “inactive”.

Turning to IITYVLLFNKFNTGVCE, the amyloid nucleation score came out at 7.393 ± 0.049.

GVMRIHCGDREC registered an amyloid nucleation score of 0.8 ± 0.54.

Turning to EDSPPFWGVVWPFTRNNDRK, the amyloid nucleation score came to 1.11 ± 0.52.

In turn, SFRTLVP yielded an amyloid nucleation score of -0.905 ± 0.63.

Regarding HTSVFFRKKPGSCISRSLSL, the amyloid nucleation score result was “inactive”.

YLSQWLSEWGVQRYVESYAR displayed an amyloid nucleation score of 0.445 ± 0.29.

In turn, WKQEYFG registered an amyloid nucleation score of -0.508 ± 0.63.

Take NKSVQARDPTV: the amyloid nucleation score result was “inactive”.

NYSRL showed an amyloid nucleation score of -0.099 ± 0.26.

On to MDSDNFLQYYSRYFNEVAFC, for which the amyloid nucleation score was -0.145 ± 0.79.

In turn, IVFVLLSYYLL registered an amyloid nucleation score of 3.4 ± 0.037.

For the substance HSVKCDSLGFLPFSTYWLRI, the amyloid nucleation score is -0.047 ± 0.79.

RAGFSSAPLVEGRSLTQRCR: the amyloid nucleation score entry is “inactive”.

VHTARLTWDLGYSVRCYYWT came in with an amyloid nucleation score of 6.47 ± 0.074.

As to YNDSDFWGRVWSTHAPCKAT, the amyloid nucleation score is -0.134 ± 1.1.

IAITDFVLVSVLHSKWCIF displayed an amyloid nucleation score of -0.246 ± 0.5.

On to MMKGRDKTGYPTTRGVMCDK, for which the amyloid nucleation score stood at 0.232 ± 0.18.

Substance THEIFMHSYY displayed an amyloid nucleation score of -0.913 ± 1.1.

The substance YGKADCPSLGVYMRL returned an amyloid nucleation score of 2.25 ± 0.15.

In the case of RLSSYILAIYSNRAKYF, the amyloid nucleation score was determined as 0.412 ± 0.5.

The substance MGFRGIHMRVCAFLRWYNNY had an amyloid nucleation score of -0.709 ± 0.33.

Turning to VSYDVNIFWYPKKMS, the amyloid nucleation score entry is “inactive”.

Substance ICIFIWIDASRACKPNIQCS had an amyloid nucleation score of 5.58 ± 0.062.

Consider ISFYYWLARPCLFVSKIEGA, for which the amyloid nucleation score was found to be 3.54 ± 0.062.

Turning to LGKFEA, the amyloid nucleation score result is “inactive”.

In turn, GYFAYRVICNVVGDTGFSLA had an amyloid nucleation score of -0.06 ± 1.1.

Regarding SRSWTLKFRLGGNVKQYCTW, the amyloid nucleation score worked out at 5.72 ± 0.091.

Consider SFNEMILHLIPRSCSLKKYI, for which the amyloid nucleation score is -0.441 ± 0.28.

YPYSSWRGSVHCELGINGMG gave an amyloid nucleation score of 0.29 ± 0.77.

As to KNLDQYCCCFNALTLSVSRS, the amyloid nucleation score stood at 7.473 ± 0.051.

NHKAIYLRPSSTNPEILSRA: the amyloid nucleation score was found to be 1.15 ± 0.47.

In turn, ICIFSSCERSMGHRRC returned an amyloid nucleation score of 0.141 ± 0.38.

MCSSPRRNDKLNNGRFYSCS came in with an amyloid nucleation score of -1.11 ± 0.54.

Turning to CLQCYYRMSDNCFHSTA, the amyloid nucleation score is 5.114 ± 0.04.

Take RQSIEISYLYISFGHKYR: the amyloid nucleation score stood at 5.98 ± 0.083.

Regarding IPWNQRRKW, the amyloid nucleation score came out at 0.671 ± 0.16.

In turn, CNIAPASKFSIIMPRR returned an amyloid nucleation score of 3.74 ± 0.11.

QKTWEIANCFAELEKKIRQG registered an amyloid nucleation score of 2.4 ± 0.069.

In turn, SRVDNVSSAPAISAMGVWCG had an amyloid nucleation score of 1.14 ± 0.38.

For LRREGTYIRPCKDMYFGDSC, the amyloid nucleation score entry was “inactive”.
